Assay results from the supplement of paper PMC6757056.
± gives the standard deviation of the averaged measurements.

B1: library; a variant is named by its letters at N, in order (parent)
chain: GCUGUCACCGGUGCUUGGUACGUUAUAUUCAGCCGGUCUGAUGAGUCUNNNNNNAGACGAAACAGC

What was measured:
(6R,S)-folinic acid [1] = variants of: B1; test: normalized RNA/DNA level without ligand (relative to sTRSVctl = 100) (log10 (% of sTRSVctl)); HEK293T overexpressing SLC46A1; higher = less ribozyme self-cleavage, higher mRNA level; details: without (6R,S)-folinic acid; ligand present: no
In short: (§1)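 RNA level was computed as RNA reads over DNA reads divided by a spiked-in non-cleaving sequence or by the top sequences, then scaled and log-transformed. Scaling was ×100 with log10, the top group was 25 sequences, and the threshold was ≥100 DNA reads. The reads came from HEK293T cells transfected at 4 µg per 6-well well with ribozyme switch library plasmids (mCherry, or eGFP in some ligand experiments). Total RNA was extracted with EDTA 72 h after transfection, with any ligand added 1 h before it.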

(6R,S)-folinic acid [2] = variants of: B1; test: normalized RNA/DNA level with ligand (relative to sTRSVctl = 100) (log10 (% of sTRSVctl)); HEK293T overexpressing SLC46A1; ligand concentration (+) RNA-Seq: 6 mM; higher = less ribozyme self-cleavage, higher mRNA level; details: with (6R,S)-folinic acid; ligand present: yes
In short: as §1

Variant | normalized RNA/DNA level without ligand (log10) ((6R,S)-folinic acid [1]) | normalized RNA/DNA level with ligand (log10) ((6R,S)-folinic acid [2])
UGAAGC | 1.964 ± 0.018 | 2 ± 0.021
CGAAGA | 1.986 ± 0.0023 | 2.01 ± 0.049
CGAAGU | 1.99 ± 0.03 | 2 ± 0.032
CGAAGC | 2.02 ± 0.033 | 2.04 ± 0.042
CGAAGG | 1.859 ± 0.012 | 1.94 ± 0.022
CGAAAU | 1.942 ± 0.0046 | 1.967 ± 0.013
GGACUU | 2.007 ± 0.0068 | 1.976 ± 0.016
GGACUC | 2.0453 ± 0.0012 | 2.05 ± 0.03
GGACUG | 1.9977 ± 0.00047 | 2 ± 0.059
AGAAGA | 1.949 ± 0.0067 | 2.02 ± 0.025
AGAAGC | 2.004 ± 0.0023 | 2.049 ± 0.016
AGAAGU | 1.938 ± 0.007 | 1.9746 ± 0.00065
AGAAGG | 1.931 ± 0.019 | 2.01 ± 0.037
AGAGGG | 1.78 ± 0.02 | 2.01 ± 0.015
AGAGGA | 1.929 ± 0.014 | 2.02 ± 0.039
AGAGGC | 2.018 ± 0.02 | 2.01 ± 0.04
CGAACG | 2.0268 ± 0.0006 | 2.024 ± 0.0057
CGAACU | 2 ± 0.023 | 2 ± 0.05
UGACGU | 1.97 ± 0.03 | 2.02 ± 0.023
CGACGA | 2.001 ± 0.011 | 2 ± 0.05
CGACGG | 1.926 ± 0.014 | 1.973 ± 0.015
CGACGU | 1.995 ± 0.002 | 2.02 ± 0.021
CGACGC | 2.03 ± 0.0041 | 2.01 ± 0.038
AGAACU | 2.036 ± 0.0042 | 2.075 ± 0.0036

Variant | normalized RNA/DNA level without ligand (log10) ((6R,S)-folinic acid [1]) | normalized RNA/DNA level with ligand (log10) ((6R,S)-folinic acid [2])
AGAACC | 2.02 ± 0.0077 | 2.01 ± 0.049
AGAACA | 2.007 ± 0.0027 | 2.02 ± 0.045
AGAACG | 1.954 ± 0.0051 | 2.018 ± 0.016
AGACCC | 2.039 ± 0.0085 | 2.02 ± 0.055
AGACCG | 2.05 ± 0.026 | 2.04 ± 0.029
GGAGGG | 1.98 ± 0.028 | 2.04 ± 0.046
GGAGGA | 1.975 ± 0.0041 | 2.01 ± 0.046
GGACGG | 2.008 ± 0.015 | 2.04 ± 0.033
GGACGC | 1.949 ± 0.0027 | 1.96 ± 0.025
GGACCA | 2.054 ± 0.017 | 2.02 ± 0.029
GGACCC | 2.045 ± 0.019 | 2.027 ± 0.015
GGACCU | 2.062 ± 0.0094 | 2.02 ± 0.033
UGAGCA | 1.95 ± 0.014 | 2.0212 ± 0.00076
UGAGCC | 2.038 ± 0.0055 | 2.04 ± 0.041
CGAGGA | 2.019 ± 0.0022 | 2.04 ± 0.029
CGAGGC | 2.03 ± 0.013 | 2.04 ± 0.031
CGAGGU | 2.02 ± 0.02 | 2.02 ± 0.054
CGAGAG | 1.964 ± 0.015 | 1.964 ± 0.0059
CGAGAC | 1.947 ± 0.015 | 1.974 ± 0.012
CGAGAU | 1.957 ± 0.011 | 1.99 ± 0.025
CGACAG | 1.95 ± 0.031 | 1.972 ± 0.018
CGACAA | 1.945 ± 0.013 | 1.96 ± 0.029
CGACAC | 2.026 ± 0.012 | 2 ± 0.037
CGACAU | 2.006 ± 0.006 | 2.02 ± 0.044

Variant | normalized RNA/DNA level without ligand (log10) ((6R,S)-folinic acid [1]) | normalized RNA/DNA level with ligand (log10) ((6R,S)-folinic acid [2])
AGACUU | 2.021 ± 0.0033 | 1.99 ± 0.024
AGACUA | 1.977 ± 0.0092 | 1.98 ± 0.043
AGACUC | 2.038 ± 0.0045 | 2.05 ± 0.021
AGACUG | 2.003 ± 0.0063 | 2.01 ± 0.04
UGAACC | 2.011 ± 0.0035 | 2 ± 0.031
UGAACA | 1.9795 ± 0.00092 | 2.01 ± 0.037
CGACCC | 2.05 ± 0.028 | 2.02 ± 0.051
CGACCA | 2.079 ± 0.0068 | 2.03 ± 0.034
CGACCG | 1.991 ± 0.007 | 1.99 ± 0.018
CGACCU | 2.061 ± 0.0049 | 2.016 ± 0.013
CGAGCC | 2.06 ± 0.028 | 2.03 ± 0.039
CGAGCU | 2.014 ± 0.02 | 2.03 ± 0.04
CGAGCA | 2 ± 0.021 | 2.02 ± 0.029
CGAGCG | 1.994 ± 0.015 | 1.998 ± 0.017
GGACAU | 2.018 ± 0.011 | 2.011 ± 0.016
GGACAC | 2.013 ± 0.013 | 2.03 ± 0.039
GGACAG | 1.954 ± 0.0092 | 1.99 ± 0.052
AGACGG | 1.934 ± 0.011 | 2.01 ± 0.027
AGACGU | 1.976 ± 0.0062 | 2.01 ± 0.026
AGAGAC | 1.981 ± 0.0066 | 2.009 ± 0.016
AGAGAA | 1.953 ± 0.0039 | 1.99 ± 0.025
AGAGAU | 1.982 ± 0.011 | 1.99 ± 0.023
AGAGAG | 1.67 ± 0.022 | 1.966 ± 0.015
GGAAGG | 1.95 ± 0.022 | 2.03 ± 0.04

Variant | normalized RNA/DNA level without ligand (log10) ((6R,S)-folinic acid [1]) | normalized RNA/DNA level with ligand (log10) ((6R,S)-folinic acid [2])
GGAAGU | 1.978 ± 0.0031 | 2.01 ± 0.032
GGAAGC | 1.9092 ± 0.0019 | 1.99 ± 0.044
CGAAUC | 2.05 ± 0.019 | 2.03 ± 0.034
CGAAUG | 2.0224 ± 0.0012 | 2.034 ± 0.012
CGAAUU | 2 ± 0.026 | 2.01 ± 0.037
UGACUC | 2.075 ± 0.011 | 2.042 ± 0.0068
UGACUU | 2.006 ± 0.014 | 2.017 ± 0.015
UGACUA | 1.963 ± 0.0017 | 2.0143 ± 0.0019
UGAAUU | 1.986 ± 0.0089 | 2 ± 0.036
UGAAUC | 2.07 ± 0.021 | 2.06 ± 0.047
UGAAUA | 1.965 ± 0.0093 | 2.03 ± 0.026
UGACAC | 2.002 ± 0.0083 | 2.008 ± 0.0047
UGACAU | 1.9505 ± 0.00041 | 1.99 ± 0.05
AGACAC | 2.0193 ± 0.00083 | 2.01 ± 0.028
AGACAA | 2.004 ± 0.0066 | 2.01 ± 0.03
AGACAU | 1.994 ± 0.0052 | 2.02 ± 0.026
AGAGCC | 2.05 ± 0.003 | 2.04 ± 0.045
AGAGCG | 1.775 ± 0.0033 | 1.97 ± 0.029
AGAGCA | 1.977 ± 0.0046 | 2.01 ± 0.051
UGAGGC | 1.982 ± 0.0067 | 1.98 ± 0.073
GGAAAU | 1.98 ± 0.025 | 2.04 ± 0.027
UGAGAC | 1.912 ± 0.011 | 1.98 ± 0.028
AGAAUA | 1.9881 ± 0.00025 | 2.02 ± 0.037
AGAAUC | 2.0639 ± 0.001 | 2.05 ± 0.033

Variant | normalized RNA/DNA level without ligand (log10) ((6R,S)-folinic acid [1]) | normalized RNA/DNA level with ligand (log10) ((6R,S)-folinic acid [2])
AGAAUG | 1.893 ± 0.0045 | 2 ± 0.039
AGAAUU | 2.005 ± 0.02 | 2.021 ± 0.008
GGAACU | 2.035 ± 0.01 | 2.029 ± 0.016
GGAACA | 2.0061 ± 0.00047 | 2.02 ± 0.043
GGAACC | 2.036 ± 0.01 | 2.04 ± 0.06
GGAACG | 2 ± 0.027 | 2.03 ± 0.032
GGAAUA | 2.022 ± 0.0049 | 2.04 ± 0.04
GGAGCA | 1.978 ± 0.0021 | 2.02 ± 0.022
GGAGCG | 1.939 ± 0.011 | 2.02 ± 0.041
GGAGCU | 2.045 ± 0.017 | 2.04 ± 0.04
CGACUU | 2.01 ± 0.035 | 2.05 ± 0.025
CGACUG | 2.028 ± 0.0025 | 2.014 ± 0.011
CGACUA | 2.014 ± 0.0047 | 2.042 ± 0.0086
CGACUC | 2.08 ± 0.023 | 2.04 ± 0.07
GGAGAG | 1.85 ± 0.02 | 1.97 ± 0.038
AGAAAU | 2.026 ± 0.0034 | 2.01 ± 0.044
AGAAAG | 1.901 ± 0.0062 | 2.01 ± 0.022
UGACCC | 2.041 ± 0.011 | 2.02 ± 0.026
UGACCU | 2.058 ± 0.011 | 2.06 ± 0.034
UGACCG | 1.983 ± 0.0022 | 2.01 ± 0.023
